{"source": "patent US7081343", "target": "T7-RelA, Q04206", "sequence (Q04206 whole entry)": "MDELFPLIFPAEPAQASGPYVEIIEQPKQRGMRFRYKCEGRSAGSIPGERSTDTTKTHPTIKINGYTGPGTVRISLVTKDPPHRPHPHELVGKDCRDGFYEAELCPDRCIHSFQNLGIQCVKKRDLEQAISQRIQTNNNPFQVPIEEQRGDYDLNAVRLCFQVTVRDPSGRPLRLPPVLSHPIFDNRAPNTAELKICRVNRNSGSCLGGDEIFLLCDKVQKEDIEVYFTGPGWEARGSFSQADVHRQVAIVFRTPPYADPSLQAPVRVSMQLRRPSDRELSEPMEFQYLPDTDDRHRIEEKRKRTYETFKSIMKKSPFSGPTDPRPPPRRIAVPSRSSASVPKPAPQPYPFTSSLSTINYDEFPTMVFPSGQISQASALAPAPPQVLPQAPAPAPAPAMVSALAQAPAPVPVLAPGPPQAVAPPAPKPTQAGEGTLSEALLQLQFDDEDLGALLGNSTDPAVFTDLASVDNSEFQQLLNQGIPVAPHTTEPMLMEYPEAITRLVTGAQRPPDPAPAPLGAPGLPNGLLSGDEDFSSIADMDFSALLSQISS"}
{"protein": "P/CAF (protein) MSEAGGAGPGGCGAGAGAGAGPGALPPQPAALPPAPPQGSPCAAAAGGSGACGPATAVAAAGTAEGPGGGGSARIAVKKAQLRSAPRAKKLEKLGVYSACKAEESCKCNGWKNPNPSPTPPRADLQQIIVSLTESCRSCSHALAAHVSHLENVSEEEMNRLLGIVLDVEYLFTCVHKEEDADTKQVYFYLFKLLRKSILQRGKPVVEGSLEKKPPFEKPSIEQGVNNFVQYKFSHLPAKERQTIVELAKMFLNRINYWHLEAPSQRRLRSPNDDISGYKENYTRWLCYCNVPQFCDSLPRYETTQVFGRTLLRSVFTVMRRQLLEQARQEKDKLPLEKRTLILTHFPKFLSMLEEEVYSQNSPIWDQDFLSASSRTSQLGIQTVINPPPVAGTISYNSTSSSLEQPNAGSSSPACKASSGLEANPGEKRKMTDSHVLEEAKKPRVMGDIPMELINEVMSTITDPAAMLGPETNFLSAHSARDEAARLEERRGVIEFHVVGNSLNQKPNKKILMWLVGLQNVFSHQLPRMPKEYITRLVFDPKHKTLALIKDGRVIGGICFRMFPSQGFTEIVFCAVTSNEQVKGYGTHLMNHLKEYHIKHDILNFLTYADEYAIGYFKKQGFSKEIKIPKTKYVGYIKDYEGATLMGCELNPRIPYTEFSVIIKKQKEIIKKLIERKQAQIRKVYPGLSCFKDGVRQIPIESIPGIRETGWKPSGKEKSKEPRDPDQLYSTLKSILQQVKSHQSAWPFMEPVKRTEAPGYYEVIRFPMDLKTMSERLKNRYYVSKKLFMADLQRVFTNCKEYNPPESEYYKCANILEKFFFSKIKEAGLIDK", "values": [{"measurement": "acetylation of T7-RelA (anti-T7 immunoprecipitation, anti-acetylated lysine blot)", "value": "P/CAF failed to mediate this response"}]}
